Measured values taken from publication PMC9692563, “The HIV-1 Integrase C-Terminal Domain Induces TAR RNA Structural Changes Promoting Tat Binding”.

What was measured:
[1] = test system: Tat (HIV-1 primary isolate 133); assay: BLI; details: EMSA: 20 mM MES pH 6.0, 150 mM NaCl, 2 mM DTT, 2 mM MgCl2, BSA, 8% PEG8000, 37 C 30 min (IN-FLm 2 h at 4 C); BLI: 50 mM HEPES pH 7.5, 200 mM NaCl, 2 mM BME, 5% …
[2] = target: T1, IN-FLm (HIV-1 integrase, mammalian expressed) (HIV-1, UniProt P12497 1148-1435); assay: EMSA; EMSA: 20 mM MES pH 6.0, 150 mM NaCl, 2 mM DTT, 2 mM MgCl2, BSA, 8% PEG8000, 37 C 30 min (IN-FLm 2 h at 4 C); BLI: 50 mM HEPES pH 7.5, 200 mM NaCl, 2 mM BME, 5%; details: protein: recombinant, tags: N-terminal Flag, label: 5' 32P
IN-CTD [3] = target: T2, IN-CTD (HIV-1, UniProt P12497 1367-1435); assay: as above; details: protein: recombinant, tags: N-terminal 6xHis, label: 5' 32P
[4] = target: IN-FL (integrase, E. coli) (HIV-1 NL4-3 (pNL4-3), UniProt P12497 1148-1435); assay: as above; details: protein: recombinant; tags: N-terminal 6xHis; label: 5' 32P; hairpin with bulge and hexaloop
IN-CTD-dCT [5] = target: T3, IN-CTD-dCT (HIV-1, UniProt P12497 1367-1417); assay: as above; details: protein: recombinant; tags: N-terminal 6xHis; label: 5' 32P; hairpin with bulge and hexaloop
IN-CTD-dCT [6] = target: T3, IN-CTD-dCT; assay: EMSA; not affected by stem shortening; EMSA: 20 mM MES pH 6.0, 150 mM NaCl, 2 mM DTT, 2 mM MgCl2, BSA, 8% PEG8000, 37 C 30 min (IN-FLm 2 h at 4 C); BLI: 50 mM HEPES pH 7.5, 200 mM NaCl, 2 mM BME, 5%; details: protein: recombinant; tags: N-terminal 6xHis; label: 5' 32P; hairpin
[7] = target: T1, IN-FLm (HIV-1 integrase, mammalian …); assay: EMSA; similar to wild type; EMSA: 20 mM MES pH 6.0, 150 mM NaCl, 2 mM DTT, 2 mM MgCl2, BSA, 8% PEG8000, 37 C 30 min (IN-FLm 2 h at 4 C); BLI: 50 mM HEPES pH 7.5, 200 mM NaCl, 2 mM BME, 5%; details: protein: recombinant; tags: N-terminal Flag; label: 5' 32P; hairpin
IN-CTD [8] = target: T2, IN-CTD; assay: BLI; 200 mM NaCl, 37 C; EMSA: 20 mM MES pH 6.0, 150 mM NaCl, 2 mM DTT, 2 mM MgCl2, BSA, 8% PEG8000, 37 C 30 min (IN-FLm 2 h at 4 C); BLI: 50 mM HEPES pH 7.5, 200 mM NaCl, 2 mM BME, 5%; details: protein: recombinant; tags: N-terminal 6xHis; label: 3' biotin; hairpin
IN-CTD-dCT [9] = target: T3, IN-CTD-dCT; assay: as above; details: protein: recombinant; tags: N-terminal 6xHis; label: 3' biotin; hairpin
[10] = hairpin with bulge and hexaloop

Question: “GGGCCAGAUCUGAGCCUGGGAGCUCUCUGGCCC [Bt-TAR]” was tested. Which Kd [1] did it give?
Answer: The Kd was 1.49 µM.

Question: For “CGUCCAUCUGGUCAUCUAGUGAUAUCAUCG [Bt-RNA(30)-mer]”, which Kd [1] is on record?
Answer: The Kd was 3.84 µM.

B1: TAR (structured_RNA)
RNA: GGGUCUCUCUGGUUAGACCAGAUCUGAGCCUGGGAGCUCUCUGGCUAACUAGGGAACCC
Question: What does the source list for B1?
Answer: binding result [2, 10]: binds; binding result (IN-CTD [3]; [10]): binds; binding result [4]: binds; binding result (IN-CTD-dCT [5]): binds

B2: TAR-SS (structured_RNA)
RNA: GGGUCUCUCUGGUUAGACCAGAUCUGAGCUGGGACUCUCUGGCUAACUAGGGAACCC
Question: Does B2 bind (IN-CTD-dCT [6])?
Answer: Result: binds

B3: SD/Psi (structured_RNA)
RNA: GGGCGACUGGUCAGUACGCCAAAAAUUUUGACUAGCGGAGGCUAGAAGGAG
Question: Does B3 bind (IN-CTD [3]; hairpin)?
Answer: Result: binds

B4: DIS (structured_RNA)
RNA: GGGCUCGGCUUGCUGAAGCGCGCACGGCAAGAGGCGAG
Question: Does B4 bind (IN-CTD [3]; hairpin)?
Answer: Result: binds

B5: TAR-LS (structured_RNA)
RNA: GGGUCUCUCUGGUUAGACCAGAUCUGAGCGCUGGGACGCUCUCUGGCUAACUAGGGAACCC
Question: Does B5 bind [7]?
Answer: Result: binds

B6: TAR-VSS (structured_RNA)
RNA: GGGUCUCUCUGGUUAGACCAGAUCUGAGCGCUCUCUGGCUAACUAGGGAACCC
Question: Does B6 bind (IN-CTD-dCT [6])?
Answer: Result: binds

B7: polyA (structured_RNA)
RNA: GGGCACUGCUUAAGCCUCAAUAAAGCUUGCCUUGAGUGCUUCAAGUAGUG
Question: Does B7 bind (IN-CTD [3]; hairpin)?
Answer: Result: binds

B8: Bt-TAR (structured_RNA)
RNA: GGGCCAGAUCUGAGCCUGGGAGCUCUCUGGCCC
Question: How did the Kd (IN-CTD [8]) turn out when B8 was run?
Answer: Its Kd is 0.32 µM.

Question: What about the Kd (IN-CTD-dCT [9]) of the same molecule?
Answer: The Kd was 0.77 µM.

B9: RNA(30)-mer (ssRNA)
RNA: CGUCCAUCUGGUCAUCUAGUGAUAUCAUCG
Question: Does B9 bind ([2]; weakly structured)?
Answer: Result: binds
